Assay [1] deals with T1, Human ROBO2 overexpressed on HEK293 cells (human, UniProt Q9HCK4 22-1378).
T1 construct: also called ROBO2 cells; native ROBO2
T1 sequence: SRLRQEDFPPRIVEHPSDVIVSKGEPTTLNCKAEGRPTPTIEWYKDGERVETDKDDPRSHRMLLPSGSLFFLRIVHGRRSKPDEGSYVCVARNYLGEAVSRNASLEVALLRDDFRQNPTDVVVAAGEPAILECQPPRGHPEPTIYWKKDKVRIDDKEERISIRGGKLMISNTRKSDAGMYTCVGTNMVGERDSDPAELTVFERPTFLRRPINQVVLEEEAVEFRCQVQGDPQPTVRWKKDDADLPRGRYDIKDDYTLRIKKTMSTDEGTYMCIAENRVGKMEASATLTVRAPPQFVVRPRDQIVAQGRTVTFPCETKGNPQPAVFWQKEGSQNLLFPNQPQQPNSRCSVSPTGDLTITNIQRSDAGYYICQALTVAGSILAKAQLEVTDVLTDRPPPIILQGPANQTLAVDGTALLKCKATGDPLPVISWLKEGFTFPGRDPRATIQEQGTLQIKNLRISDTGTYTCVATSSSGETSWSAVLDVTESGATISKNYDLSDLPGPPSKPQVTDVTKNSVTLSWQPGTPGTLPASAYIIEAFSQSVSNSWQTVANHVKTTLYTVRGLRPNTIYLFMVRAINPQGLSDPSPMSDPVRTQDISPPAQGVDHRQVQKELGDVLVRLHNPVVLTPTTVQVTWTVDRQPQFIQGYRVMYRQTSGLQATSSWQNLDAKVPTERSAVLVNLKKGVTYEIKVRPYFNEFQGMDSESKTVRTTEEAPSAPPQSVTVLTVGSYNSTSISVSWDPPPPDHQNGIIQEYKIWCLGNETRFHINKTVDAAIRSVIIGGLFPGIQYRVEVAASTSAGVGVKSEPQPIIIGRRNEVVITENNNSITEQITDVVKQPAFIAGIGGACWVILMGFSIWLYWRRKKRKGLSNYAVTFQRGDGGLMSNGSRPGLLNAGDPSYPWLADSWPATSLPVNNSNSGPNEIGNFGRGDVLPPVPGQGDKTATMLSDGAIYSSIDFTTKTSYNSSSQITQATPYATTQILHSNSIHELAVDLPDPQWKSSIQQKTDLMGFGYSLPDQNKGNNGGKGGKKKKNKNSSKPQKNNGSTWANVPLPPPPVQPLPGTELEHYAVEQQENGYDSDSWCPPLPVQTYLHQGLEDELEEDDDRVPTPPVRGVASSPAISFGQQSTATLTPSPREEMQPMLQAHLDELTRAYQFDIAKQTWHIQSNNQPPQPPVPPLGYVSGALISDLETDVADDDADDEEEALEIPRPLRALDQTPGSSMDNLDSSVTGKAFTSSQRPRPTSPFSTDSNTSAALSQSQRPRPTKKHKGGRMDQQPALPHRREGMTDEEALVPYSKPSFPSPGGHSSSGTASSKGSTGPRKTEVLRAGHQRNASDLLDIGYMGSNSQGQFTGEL
As to the kind of experiment: flow cytometry, HEK293 cells, average of n = 5. The procedure:
(§1) Binding of the antibodies was detected using a secondary fluorochrome conjugated anti-human IgG F(ab′)₂ antibody and samples were analyzed on a Fortessa cytometer (BD Biosciences). The fold ROBO2 selectivity was calculated as the geometric mean fluorescence intensity (Geo MFI) with ROBO2 cells/Geo MFI with ROBO1 cells. A fold change higher than 3 was considered to be ROBO2 specific (Table 2, Fold Selectivity). Some affinity matured clones had increased ROBO1 reactivity, for example Abcs 55, CTI-R2-10 and CTIR2-13.
(§2) Based upon several criteria, Abcs25 and Abcs35 were selected for further characterization. Using flow cytometry, improvement in the binding EC₅₀ to human ROBO2 relative to the parental 93H2 was evaluated. Starting at 6.7 nM, 11-point, 3-fold dilution series were made for each antibody and used to stain HEK293 overexpressing human ROBO2 as described above for the ROBO2 fold selectivity (Example 2). […] In addition to measuring improved binding to human ROBO2, it was important to ensure that high affinity binding to both cynomolgus monkey ROBO2 and rat ROBO2 was maintained. Using HEK293 cells overexpressing either cynomolgus monkey ROBO2 or rat ROBO2, the relative dose-dependent binding of 93H2, Abcs25 and Abcs35 was evaluated as described above. High affinity binding to both cynomolgus monkey and rat ROBO2 was maintained in Abcs25 and Abcs35 (Table 4). […] Briefly, Abcs35 was immobilized to 300 resonance units (RU) on a CM5 chip. Association of ROBO2 Ig1-Ig2-His (ROBO2) was measured over 5 minutes and dissociation was followed for a period of 10 minutes.
For orientation: A flow cytometer gives signals particle by particle.

Assay [2] concerns the target T2, Human ROBO1 RSK mutant overexpressed on HEK293 cells (human, UniProt Q9Y6N7 26-1651).
T2 construct: K137R and R139K already in the entry; also called ROBO1-RSK cells
The experiment in a line: flow cytometry, HEK293 ROBO1-RSK cells. The procedure:
as §1, §2
RSK specificity for Abcs35, along with 93H2 and Abcs25, also was confirmed in a cell-based binding assay using flow cytometry. HEK293 cells overexpressing ROBO2 containing the KSR sequence from ROBO1 (ROBO2-KSR) or ROBO1 containing the RSK sequence from ROBO2 (ROBO1-RSK) were generated. As described above in Example 3, dose-dependent binding was evaluated.

Assay [3] has as its target T1, Human ROBO2 overexpressed on HEK293 …. The experiment in a line: flow cytometry, Geo MFI ROBO2/ROBO1 HEK293 cells, 2.5 µg/ml. Here is the method:
as §1
HTRF assays were run with 5 nM d2-labeled SLIT2-N and antibodies were added at 1 nM. […] Antibodies derived from chain (Abcs series) or CDR shuffling (CTIR-2 series) were evaluated in 11-point, 5-fold dilution series with a top concentration of 1500 nM, N.T. = not tested; ^cFold selectivity was calculated as Geometric Mean Fluorescent Intensity (Geo MFI) of ROBO2/Geo MFI of ROBO1 binding. […] Outcomes: results are listed in order of assays listed in the table (left to right), I.A. = Improved Affinity

Data on nine molecules can be found in patent US20200157212A1 (Pfizer, published 2020).

T2 sequence (Q9Y6N7 other isoform, or with tags, fused parts or gaps mutant limits assumed): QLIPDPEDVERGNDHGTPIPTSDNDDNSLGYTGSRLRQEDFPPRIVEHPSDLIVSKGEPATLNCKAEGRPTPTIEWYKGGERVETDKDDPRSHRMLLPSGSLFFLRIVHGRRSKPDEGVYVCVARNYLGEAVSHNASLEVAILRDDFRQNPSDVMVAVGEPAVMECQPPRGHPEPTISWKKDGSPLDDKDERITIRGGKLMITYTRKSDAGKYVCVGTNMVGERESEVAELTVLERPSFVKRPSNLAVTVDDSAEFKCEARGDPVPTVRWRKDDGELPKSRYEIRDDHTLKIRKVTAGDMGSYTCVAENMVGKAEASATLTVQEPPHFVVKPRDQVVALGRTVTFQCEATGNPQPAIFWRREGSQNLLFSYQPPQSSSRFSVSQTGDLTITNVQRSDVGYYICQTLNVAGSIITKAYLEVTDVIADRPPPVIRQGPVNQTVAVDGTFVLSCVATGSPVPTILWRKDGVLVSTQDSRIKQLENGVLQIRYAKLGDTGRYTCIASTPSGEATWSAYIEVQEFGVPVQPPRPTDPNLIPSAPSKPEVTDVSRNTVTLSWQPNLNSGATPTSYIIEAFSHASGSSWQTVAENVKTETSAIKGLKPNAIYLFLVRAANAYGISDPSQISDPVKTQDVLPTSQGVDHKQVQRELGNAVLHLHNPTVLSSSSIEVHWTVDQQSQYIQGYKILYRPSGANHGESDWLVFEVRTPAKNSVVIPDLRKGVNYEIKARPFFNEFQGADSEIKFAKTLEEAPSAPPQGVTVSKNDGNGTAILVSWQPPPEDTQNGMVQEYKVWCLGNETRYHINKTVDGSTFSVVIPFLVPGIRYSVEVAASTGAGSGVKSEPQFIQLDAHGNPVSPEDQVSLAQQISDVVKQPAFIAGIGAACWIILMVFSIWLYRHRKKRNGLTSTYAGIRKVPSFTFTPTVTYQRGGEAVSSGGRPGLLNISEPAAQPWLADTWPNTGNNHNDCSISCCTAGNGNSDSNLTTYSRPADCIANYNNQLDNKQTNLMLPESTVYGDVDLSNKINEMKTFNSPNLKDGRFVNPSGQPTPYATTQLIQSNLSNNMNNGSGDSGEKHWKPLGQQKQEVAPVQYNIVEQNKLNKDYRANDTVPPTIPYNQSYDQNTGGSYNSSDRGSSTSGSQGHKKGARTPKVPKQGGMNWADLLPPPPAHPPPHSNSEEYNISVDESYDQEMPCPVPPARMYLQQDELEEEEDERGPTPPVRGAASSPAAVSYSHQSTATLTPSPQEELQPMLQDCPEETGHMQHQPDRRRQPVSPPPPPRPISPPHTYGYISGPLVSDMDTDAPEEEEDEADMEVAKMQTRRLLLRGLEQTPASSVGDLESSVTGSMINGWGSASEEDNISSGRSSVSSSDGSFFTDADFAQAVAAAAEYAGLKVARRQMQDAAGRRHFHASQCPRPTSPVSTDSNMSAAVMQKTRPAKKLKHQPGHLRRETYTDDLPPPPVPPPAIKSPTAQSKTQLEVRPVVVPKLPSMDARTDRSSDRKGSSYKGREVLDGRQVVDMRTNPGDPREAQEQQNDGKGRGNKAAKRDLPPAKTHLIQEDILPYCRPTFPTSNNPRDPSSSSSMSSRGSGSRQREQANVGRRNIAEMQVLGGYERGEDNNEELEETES

B1: 93H2 (antibody, human IgG1, kappa, V domains shown)
VH: EVQLVQSGAEVKKPGASVKVSCKASGYTFTGYYMHWVRQAPGQGLEWMGWINPNSGATNFPQKFQGRVTMTRDTSITTAYMDLSRLRSDDTAVYYCARESGDDAFDIWGQGTMVTVSS
VL: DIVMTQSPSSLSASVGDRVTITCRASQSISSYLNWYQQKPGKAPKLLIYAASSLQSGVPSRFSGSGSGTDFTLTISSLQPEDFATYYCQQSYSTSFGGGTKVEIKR
notes: also called parental 93H2; 93H2 mAb
On to B1, for which the figures for the concentration giving a half-maximal response (EC50) in assay [1] and in assay [2] were 133 pM and 370 pM, respectively.

B2: Abcs55 (antibody, human IgG1, kappa, V domains shown)
VH: EVQLVQSGAEVKKPGASVKVSCKASGYTFTGYYMHWVRQAPGQGLEWMGWINPKDGDTEFPQKFQGRVTMTRDTSITTAYMDLSRLRSDDTAVYYCARESGDDAFDIWGQGTMVTVSS
VL: DIVMTQSPSSLSASVGDRVTITCRASQSISSYLNWYQQKPGKAPKLLIYAASSLQYGVPSRFSGSGSGTDFTLTISSLQPEDFATYYCQQSYSTSFGGGTKVEIKR
notes: chain-shuffled IgG
Turning to B2, the “Fold Selectivity for ROBO2/ROBO1” value in assay [3] came to 1.5 fold.

B3: CTIR2-16 (antibody, human IgG1, kappa, V domains shown)
VH: EVQLVQSGAEVKKPGASVKVSCKASGYTFRGYAMHWVRQAPGQGLEWMGWIDPRTGLTKFPQKFQGRVTMTRDTSITTAYMDLSRLRSDDTAVYYCARESGDDAFDIWGQGTMVTVSS
VL: DIVMTQSPSSLSASVGDRVTITCRASQKISSYLNWYQQKPGKAPKLLIYAASSLQYGVPSRFSGSGSGTDFTLTISSLQPEDFATYYCQQSVGLFFGGGTKVEIKR
notes: CDR-shuffled IgG
Take B3: in assay [3], the “Fold Selectivity for ROBO2/ROBO1” value came to 6.2 fold.

B4: CTIR2-14 (antibody, human IgG1, kappa, V domains shown)
VH: EVQLVQSGAEVKKPGASVKVSCKASGYTFRGYAMHWVRQAPGQGLEWMGWIDPRTGLTKFPQKFQGRVTMTRDTSITTAYMDLSRLRSDDTAVYYCARESGDDAFDIWGQGTMVTVSS
VL: DIVMTQSPSSLSASVGDRVTITCRASQKISSYLNWYQQKPGKAPKLLIYAASSLQYGVPSRFSGSGSGTDFTLTISSLQPEDFATYYCQQSLELGFGGGTKVEIKR
notes: CDR-shuffled IgG
With B4, the “Fold Selectivity for ROBO2/ROBO1” value in assay [3] amounted to 23.9 fold.

B5: Abcs20 (antibody, human IgG1, kappa, V domains shown)
VH: EVQLVQSGAEVKKPGASVKVSCKASGYTFTGYYMHWVRQAPGQGLEWMGWINPKNGDTEFPQKFQGRVTMTRDTSITTAYMDLSRLRSDDTAVYYCARESGDDAFDIWGQGTMVTVSS
VL: DIVMTQSPSSLSASVGDRVTITCRASQSISSYLNWYQQKPGKAPKLLIYAASSLQSGVPSRFSGSGSGTDFTLTISSLQPEDFATYYCQQSVGLSFGGGTKVEIKR
notes: chain-shuffled IgG
For the molecule B5, the “Fold Selectivity for ROBO2/ROBO1” value in assay [3] was found to be 5.2 fold.

B6: Abcs35 (antibody, human IgG1, kappa)
heavy: EVQLVQSGAEVKKPGASVKVSCKASGYTFTGYYMHWVRQAPGQGLEWMGWINPKNGDTEFPQKFQGRVTMTRDTSITTAYMDLSRLRSDDTAVYYCARESGDDAFDIWGQGTMVTVSSASTKGPSVFPLAPSSKSTSGGTAALGCLVKDYFPEPVTVSWNSGALTSGVHTFPAVLQSSGLYSLSSVVTVPSSSLGTQTYICNVNHKPSNTKVDKKVEPKSCDKTHTCPPCPAPEAAGAPSVFLFPPKPKDTLMISRTPEVTCVVVDVSHEDPEVKFNWYVDGVEVHNAKTKPREEQYNSTYRVVSVLTVLHQDWLNGKEYKCKVSNKALPAPIEKTISKAKGQPREPQVYTLPPSREEMTKNQVSLTCLVKGFYPSDIAVEWESNGQPENNYKTTPPVLDSDGSFFLYSKLTVDKSRWQQGNVFSCSVMHEALHNHYTQKSLSLSPGK
light: DIVMTQSPSSLSASVGDRVTITCRASQSISSYLNWYQQKPGKAPKLLIYAASSLQSGVPSRFSGSGSGTDFTLTISSLQPEDFATYYCQQSVGLFFGGGTKVEIKRTVAAPSVFIFPPSDEQLKSGTASVVCLLNNFYPREAKVQWKVDNALQSGNSQESVTEQDSKDSTYSLSSTLTLSKADYEKHKVYACEVTHQGLSSPVTKSFNRGEC
notes: fully human IgG1; VH of Ab96 with VL of Ab123
As for B6, the “Fold Selectivity for ROBO2/ROBO1” value in assay [3] amounted to 4.8 fold. In addition, the EC50 in assay [1] was determined as 82 pM; in assay [2], 74 pM.

B7: Abcs40 (antibody, human IgG1, kappa, V domains shown)
VH: EVQLVQSGAEVKKPGASVKVSCKASGYTFTGYYMHWVRQAPGQGLEWMGWINPKDGDTEFPQKFQGRVTMTRDTSITTAYMDLSRLRSDDTAVYYCARESGDDAFDIWGQGTMVTVSS
VL: DIVMTQSPSSLSASVGDRVTITCRASQSISSYLNWYQQKPGKAPKLLIYAASSLQSGVPSRFSGSGSGTDFTLTISSLQPEDFATYYCQQSVGLFFGGGTKVEIKR
notes: chain-shuffled IgG
As to B7, the “Fold Selectivity for ROBO2/ROBO1” value in assay [3] was 4.8 fold.

B8: CTIR2-15 (antibody, human IgG1, kappa, V domains shown)
VH: EVQLVQSGAEVKKPGASVKVSCKASGYTFRGYAMHWVRQAPGQGLEWMGWIDPRTGLTKFPQKFQGRVTMTRDTSITTAYMDLSRLRSDDTAVYYCARESGDDAFDIWGQGTMVTVSS
VL: DIVMTQSPSSLSASVGDRVTITCRASQKISSYLNWYQQKPGKAPKLLIYAASSLQYGVPSRFSGSGSGTDFTLTISSLQPEDFATYYCQQSVGLSFGGGTKVEIKR
notes: CDR-shuffled IgG
As for B8, the “Fold Selectivity for ROBO2/ROBO1” value in assay [3] is 12.1 fold.

B9: Abcs25 (antibody, human IgG1, kappa, V domains shown)
VH: EVQLVQSGAEVKKPGASVKVSCKASGYTFTGYYMHWVRQAPGQGLEWMGWINPKDGDTEFPQKFQGRVTMTRDTSITTAYMDLSRLRSDDTAVYYCARESGDDAFDIWGQGTMVTVSS
VL: DIVMTQSPSSLSASVGDRVTITCRASQSISSYLNWYQQKPGKAPKLLIYAASSLQSGVPSRFSGSGSGTDFTLTISSLQPEDFATYYCQQSVGLSFGGGTKVEIKR
notes: chain-shuffled IgG
Consider B9, for which the “Fold Selectivity for ROBO2/ROBO1” value in assay [3] worked out at 3.3 fold. Moreover, the 50% effective concentration (EC50) worked out at 68 pM in assay [1] and 61 pM in assay [2].

In general, EC50 refers to the concentration that produces a half-maximal response. High values mean a less potent agent, low ones a more potent agent.
